Eleven molecules from patent publication US20220275067A1 (PROTHENA BIOSCIENCES, published 2022) can be followed below.

Sequences and labels used below:
B1: mouse 9F5 antibody (antibody, mouse IgG1, V domains shown)
VH: EVQLQQSGAELVRPGASVKLSCTASGFNIKDDYMNWVKQRPERGLEWIGWIDPENGDTEYASKFQGKATMTADTSSNTAYLQFSSLTSEDTAVYYCTTSNGWGQGTLVTVST
VL: DIVMTQAAFSNPVTLGTSASISCRSSKSLLHSNGITYLYWYLQKPGQSPQLLIYQMSNLASGVPDRFSSSGSGTDFTLRISRVEAEDVGVYYCAQNLELPLTFGAGTKLELK
modifications: here or on the partner: pHrodo label
B2: mouse 2D11 antibody (antibody, mouse IgG2a, V domains shown)
VH: B1 VH
VL: B1 VL
modifications: here or on the partner: pHrodo label
B3: mouse 17C12 antibody (antibody, mouse IgG2a, V domains shown)
VH: B1 VH with E1K, V2I, G26A, E59K, F83L, T112A
VL: DVVMTQTPLTLSVTIGQPASISCTSSQSLLHSNRKTYLHWLLQRPGQSPKLLIYLVSKLESGVPDRFSGSGSGTDFTLKISRVEAEDLGVYYCLQTTHFPRTFGGGTKLEIK
modifications: here or on the partner: pHrodo label
B4: mouse 10C12 antibody (antibody, mouse IgG2a, V domains shown)
VH: B1 VH
VL: B1 VL
modifications: here or on the partner: pHrodo label
B5: mouse 12C4 antibody (antibody, mouse IgG2a, V domains shown)
VH: B1 VH with K38R, E59A, T91S, T112A
VL: B1 VL
modifications: here or on the partner: pHrodo label
B6: mouse 14H3 antibody (antibody, mouse IgG2a, V domains shown)
VH: QVTLKESGPGILQPSQTLSLTCSFSGFSLSTYGMGVGWIRQPSGKGLEWLANIWWDDIKYYNAALKSRLTISKDTSKNQVFLKIASVDTADTATYYCARNVDYWGQGTTLTVSS
VL: DVVMTQTPLSLPVSLGDQASISCRSSQSLVHSNGNTFLHWYLQKPGQSPKLLIYKVSNRFSGVPDRFSGSGSGTDFTLKISRVEAEDLGVYFCSQSTLVPWTFGGGTKLEIK
modifications: here or on the partner: pHrodo label
B7: hu9F5VHv10/hu9F5VLv9_DIM10 (antibody, V domains shown)
VH: EVQLVQSGAEVKKPGATVKISCKASGFNIKDDYMNWVKQRPEKGLEWIGWIDPENGDTEYASKFQGRATMTADTSTNTAYMELSSLRSEDTAVYYCTTSNGWGQGTLVTVSS
VL: DIQMTQSPFSLPVTPGESASISCRSSKSLSHSNGITYLYWYQQKPGQSPQLLIYQKSNGASGVPDRFSSSGSGTDFTLKISRVEAEDVGVYYCAQNIELPLTFGQGTKLEIK
B8: hu9F5VHv10/hu9F5VLv9_DIM19 (antibody, V domains shown)
VH: B7 VH
VL: B7 VL with Q42I, K56I, G59R
B9: hu9F5VHv10/hu9F5VLv9_DIM11 (antibody, V domains shown)
VH: B7 VH
VL: B7 VL with S30G, Q42G, K56G, G59R
notes: also called H10L9-DIM11; H10L9DIM11
B10: hu9F5VHv10/hu9F5VLv9_DIM13 (antibody, V domains shown)
VH: B7 VH
VL: B7 VL with S30G, Q42G, K56G, G59R, I97L
B11: hu9F5VHv10/hu9F5VLv9_DIM20 (antibody, V domains shown)
VH: B7 VH
VL: B7 VL with K56I

Where a chain is given by its changes, count along the chain named.

For one assay, the target named is pHrodo-labeled tau P301L soluble oligomer, P10636. The experiment in a line: cell-based or functional assay.
pHrodo-labeled tau P301L soluble oligomer, P10636, sequence (P10636 other isoform, or with tags, fused parts or gaps P301L P301L): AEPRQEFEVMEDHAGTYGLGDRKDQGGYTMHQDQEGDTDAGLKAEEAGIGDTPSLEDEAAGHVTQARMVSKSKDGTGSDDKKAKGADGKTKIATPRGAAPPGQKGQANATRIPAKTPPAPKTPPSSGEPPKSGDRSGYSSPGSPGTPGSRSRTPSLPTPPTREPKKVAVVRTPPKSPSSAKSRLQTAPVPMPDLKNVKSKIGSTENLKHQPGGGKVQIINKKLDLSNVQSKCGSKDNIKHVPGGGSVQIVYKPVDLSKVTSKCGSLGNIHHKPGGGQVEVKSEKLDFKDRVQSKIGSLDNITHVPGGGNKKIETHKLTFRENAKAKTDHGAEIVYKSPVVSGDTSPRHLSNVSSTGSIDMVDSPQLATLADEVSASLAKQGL
B1 registered an internalized pHrodo-tau in B103 cells (FACS), antibody at 0.061 µg/mL (% of maximum signal) of 78.1; an internalized pHrodo-tau in B103 cells (FACS), antibody at 0.244 µg/mL (% of maximum signal) of 71.7; an internalized pHrodo-tau in B103 cells (FACS), antibody at 0.98 µg/mL (% of maximum signal) of 71; an internalized pHrodo-tau in B103 cells (FACS), antibody at 3.9 µg/mL (% of maximum signal) of 35.9. The molecule also showed an internalized pHrodo-tau in B103 cells (FACS), antibody at 15.625 µg/mL (% of maximum signal) of 24.2 and an internalized pHrodo-tau in B103 cells (FACS), antibody at 62.5 µg/mL (% of maximum signal) of 18.1.

Molecule B2 gave an internalized pHrodo-tau in B103 cells (FACS), antibody at 0.061 µg/mL (% of maximum signal) of 71.5; an internalized pHrodo-tau in B103 cells (FACS), antibody at 0.244 µg/mL (% of maximum signal) of 79.5; an internalized pHrodo-tau in B103 cells (FACS), antibody at 0.98 µg/mL (% of maximum signal) of 62.7; an internalized pHrodo-tau in B103 cells (FACS), antibody at 3.9 µg/mL (% of maximum signal) of 43. Further, the internalized pHrodo-tau in B103 cells (FACS), antibody at 15.625 µg/mL (% of maximum signal) was 28.6 and the internalized pHrodo-tau in B103 cells (FACS), antibody at 62.5 µg/mL (% of maximum signal) turned out to be 28.4.

With B3, the internalized pHrodo-tau in B103 cells (FACS), antibody at 0.061 µg/mL (% of maximum signal) amounted to 79.8; the internalized pHrodo-tau in B103 cells (FACS), antibody at 0.244 µg/mL (% of maximum signal) was 78.6; the internalized pHrodo-tau in B103 cells (FACS), antibody at 0.98 µg/mL (% of maximum signal) worked out at 63.9; the internalized pHrodo-tau in B103 cells (FACS), antibody at 3.9 µg/mL (% of maximum signal) came to 36.8. Also, the internalized pHrodo-tau in B103 cells (FACS), antibody at 15.625 µg/mL (% of maximum signal) turned out to be 32.4 and the internalized pHrodo-tau in B103 cells (FACS), antibody at 62.5 µg/mL (% of maximum signal) is 30.6.

B4 gave an internalized pHrodo-tau in B103 cells (FACS), antibody at 0.061 µg/mL (% of maximum signal) of 86.7; an internalized pHrodo-tau in B103 cells (FACS), antibody at 0.244 µg/mL (% of maximum signal) of 9.09; an internalized pHrodo-tau in B103 cells (FACS), antibody at 0.98 µg/mL (% of maximum signal) of 90.5; an internalized pHrodo-tau in B103 cells (FACS), antibody at 3.9 µg/mL (% of maximum signal) of 55.2. The same molecule returned an internalized pHrodo-tau in B103 cells (FACS), antibody at 15.625 µg/mL (% of maximum signal) of 38.9 and an internalized pHrodo-tau in B103 cells (FACS), antibody at 62.5 µg/mL (% of maximum signal) of 34.5.

With B5, the internalized pHrodo-tau in B103 cells (FACS), antibody at 0.061 µg/mL (% of maximum signal) stood at 78.2; the internalized pHrodo-tau in B103 cells (FACS), antibody at 0.244 µg/mL (% of maximum signal) worked out at 78.6; the internalized pHrodo-tau in B103 cells (FACS), antibody at 0.98 µg/mL (% of maximum signal) came to 69.7; the internalized pHrodo-tau in B103 cells (FACS), antibody at 3.9 µg/mL (% of maximum signal) came out at 42.6. The same molecule gave an internalized pHrodo-tau in B103 cells (FACS), antibody at 15.625 µg/mL (% of maximum signal) of 36.6 and an internalized pHrodo-tau in B103 cells (FACS), antibody at 62.5 µg/mL (% of maximum signal) of 37.3.

The molecule B6 came in with an internalized pHrodo-tau in B103 cells (FACS), antibody at 0.061 µg/mL (% of maximum signal) of 79.7; an internalized pHrodo-tau in B103 cells (FACS), antibody at 0.244 µg/mL (% of maximum signal) of 66; an internalized pHrodo-tau in B103 cells (FACS), antibody at 0.98 µg/mL (% of maximum signal) of 67.8; an internalized pHrodo-tau in B103 cells (FACS), antibody at 3.9 µg/mL (% of maximum signal) of 63.1. Besides, the internalized pHrodo-tau in B103 cells (FACS), antibody at 15.625 µg/mL (% of maximum signal) amounted to 53.2 and the internalized pHrodo-tau in B103 cells (FACS), antibody at 62.5 µg/mL (% of maximum signal) stood at 48.4.

In another assay the target is T1, recombinant human 4R0N tau (human, UniProt P10636 2-758).
T1 construct: also called recombinant 4R0N human tau; P10636-6
T1 sequence (P10636 other isoform, or with tags, fused parts or gaps limits assumed): as the sequence (P10636 other isoform, or with tags, fused parts or gaps P301L P301L) above
Briefly: SPR Biacore T200; antibody captured by anti-human Fc; tau as analyte; global 1:1 fit. The method, then: Target binding analysis was performed using a Biacore T200 to compare the binding affinity of humanized 9F5 variants to recombinant human 4R0N tau. Anti-Human Fc antibody was immobilized on sensor chip CM3 via amine coupling, and humanized 9F5 variants were captured to equivalent levels. Various concentrations of recombinant 4R0N human tau (ranging from 0.02 nM to 12.5 nM) were passed over the captured ligand at 50 μL/min in running buffer (HBS+0.05% P-20, 1 mg/mL BSA) for 180 seconds association/420 seconds dissociation as a single cycle. Data was blank subtracted to both an irrelevant sensor not containing antibody and 0 nM analyte concentration. Analysis was performed using a global 1:1 fit with Biacore Evaluation software.
As usually defined, the Kd is the equilibrium constant for the complex coming apart. Usually koff stands for a measure of how fast the partners let go of each other. Usually kon stands for the rate constant with which the complex forms. Take B7: the Kd is 3.77 nM, the koff was determined as 0.026 s⁻¹ and the kon came out at 6.89e+06 M⁻¹ s⁻¹.

For B8, the Kd amounted to 1.97 nM, the koff amounted to 0.00688 s⁻¹ and the kon worked out at 3.49e+06 M⁻¹ s⁻¹.

Regarding B9, the Kd worked out at 0.163 nM, the koff was found to be 0.000287 s⁻¹ and the kon came out at 1.76e+06 M⁻¹ s⁻¹.

Regarding B10, the Kd was determined as 0.508 nM, the koff is 0.00116 s⁻¹ and the kon is 2.28e+06 M⁻¹ s⁻¹.

Regarding B11, the Kd is 9.62 nM, the dissociation rate constant (koff) amounted to 0.0334 s⁻¹ and the kon was found to be 3.47e+06 M⁻¹ s⁻¹.
